Reference: paper PMC3534898

Target: Presenilin 1 (mouse (endogenous in primary neurons of CD1 mice)), P49769
Assay: FRET or BRET
Details: remark: other sources report otherwise

FRET efficiency (E FRET), vehicle treated cells: 7.07%
B1: amyloid β precursor protein, P12023 18-770 (natural protein)
chain: LEVPTDGNAGLLAEPQIAMFCGKLNMHMNVQNGKWESDPSGTKTCIGTKEGILQYCQEVYPELQITNVVEANQPVTIQNWCKRGRKQCKTHTHIVIPYRCLVGEFVSDALLVPDKCKFLHQERMDVCETHLHWHTVAKETCSEKSTNLHDYGMLLPCGIDKFRGVEFVCCPLAEESDSVDSADAEEDDSDVWWGGADTDYADGGEDKVVEVAEEEEVADVEEEEADDDEDVEDGDEVEEEAEEPYEEATERTTSTATTTTTTTESVEEVVREVCSEQAETGPCRAMISRWYFDVTEGKCVPFFYGGCGGNRNNFDTEEYCMAVCGSVSTQSLLKTTSEPLPQDPDKLPTTAASTPDAVDKYLETPGDENEHAHFQKAKERLEAKHRERMSQVMREWEEAERQAKNLPKADKKAVIQHFQEKVESLEQEAANERQQLVETHMARVEAMLNDRRRLALENYITALQAVPPRPHHVFNMLKKYVRAEQKDRQHTLKHFEHVRMVDPKKAAQIRSQVMTHLRVIYERMNQSLSLLYNVPAVAEEIQDEVDELLQKEQNYSDDVLANMISEPRISYGNDALMPSLTETKTTVELLPVNGEFSLDDLQPWHPFGVDSVPANTENEVEPVDARPAADRGLTTRPGSGLTNIKTEEISEVKMDAEFGHDSGFEVRHQKLVFFAEDVGSNKGAIIGLMVGGVVIATVIVITLVMLKKKQYTSIHHGVVEVDAAVTPEERHLSKMQQNGYENPTYKFFEQMQN
